Target: T1, Patched (Ptc) (Drosophila, UniProt P18502 1-1286)
T1 construct: whole, on cells; Endogenous protein in vivo
T1 sequence (looked up): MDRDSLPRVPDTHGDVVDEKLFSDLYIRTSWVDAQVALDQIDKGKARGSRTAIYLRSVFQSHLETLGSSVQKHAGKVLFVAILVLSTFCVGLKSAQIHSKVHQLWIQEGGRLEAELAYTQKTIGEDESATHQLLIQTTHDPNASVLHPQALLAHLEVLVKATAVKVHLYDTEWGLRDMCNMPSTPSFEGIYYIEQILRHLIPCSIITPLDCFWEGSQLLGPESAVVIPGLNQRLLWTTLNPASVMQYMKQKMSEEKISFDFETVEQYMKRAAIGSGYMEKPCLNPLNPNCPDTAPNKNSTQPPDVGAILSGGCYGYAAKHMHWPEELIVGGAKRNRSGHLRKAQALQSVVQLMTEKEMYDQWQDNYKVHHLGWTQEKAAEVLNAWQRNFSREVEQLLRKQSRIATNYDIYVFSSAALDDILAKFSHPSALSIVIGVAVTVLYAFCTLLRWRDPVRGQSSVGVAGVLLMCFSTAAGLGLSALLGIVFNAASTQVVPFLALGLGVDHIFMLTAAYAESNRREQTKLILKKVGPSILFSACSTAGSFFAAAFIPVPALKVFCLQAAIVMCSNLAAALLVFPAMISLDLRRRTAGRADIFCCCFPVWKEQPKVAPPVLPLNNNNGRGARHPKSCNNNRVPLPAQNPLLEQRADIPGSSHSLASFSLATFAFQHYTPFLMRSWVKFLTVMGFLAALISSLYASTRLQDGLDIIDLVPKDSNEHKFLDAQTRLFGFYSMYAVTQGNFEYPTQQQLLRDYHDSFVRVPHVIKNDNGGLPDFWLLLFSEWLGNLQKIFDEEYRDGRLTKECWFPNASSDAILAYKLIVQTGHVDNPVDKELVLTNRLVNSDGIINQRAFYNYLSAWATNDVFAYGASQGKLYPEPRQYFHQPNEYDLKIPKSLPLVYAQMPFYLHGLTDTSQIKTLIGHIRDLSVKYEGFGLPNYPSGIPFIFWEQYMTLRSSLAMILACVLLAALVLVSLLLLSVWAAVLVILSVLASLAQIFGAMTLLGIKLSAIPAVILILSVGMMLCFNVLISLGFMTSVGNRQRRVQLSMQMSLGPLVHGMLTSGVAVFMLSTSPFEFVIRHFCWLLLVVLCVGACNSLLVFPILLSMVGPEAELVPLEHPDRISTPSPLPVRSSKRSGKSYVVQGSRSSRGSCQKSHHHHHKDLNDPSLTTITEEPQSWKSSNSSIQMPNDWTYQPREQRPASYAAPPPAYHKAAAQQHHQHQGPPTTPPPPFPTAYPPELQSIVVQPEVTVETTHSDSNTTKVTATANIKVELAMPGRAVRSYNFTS
Assay: in vivo immunostaining of wing imaginal discs (punctuate staining in anterior cells); hh-N^HA under en-Gal4 in hh ts2/ts2 animals at the non-permissive temperature
Source text: Expression of Hh-Nu in P cells of the wing imaginal disc results in dpp-lacZ expression in the entire A compartment of the disc, and a consequent dramatic enlargement of the A compartment. Thus Hh-Nu appears to have a range of action at least five fold larger than that of wild-type Hh. However, since this and previous experiments have been performed in the presence of endogenous Hh, it could not be ruled out that the observed extension of Hh activity depends on, or is even mediated by, endogenous Hh-Np whose range might be expanded in the presence of Hh-Nu. To address this, we created a situation where Hh-Nu is the sole source of Hh in imaginal discs by expressing hh-N^HA in P cells under en-Ga14 in hh^{ts2/ts2} animals that were shifted to the non-permissive temperature during early larval stages. […] Thus Hh-Nu alone is able to associate with Ptc and signal in vivo. The cholesterol anchor of Hh appears to be required for the sequestration of Hh by Ptc, since untethered Hh is seemingly unrestricted in its range. We cannot currently rule out the possibility that Hh-Nu is also, at least partially, sequestered by Ptc but that extracellular Hh-Nu levels are abnormally high and saturate the capacity of Ptc.
hh-temperature sensitive animals were generated using the hh^ts2 allel (Ma et al., 1993) balanced over the TM6b[Tb]balancer. […]

- binding result: binds
B1: Hh-Nu (cholesterol-free N-terminal portion of Drosophila Hedgehog, product of the hh-N^HA transgene) (ligand, not shown: small tags and cut ends)
chain: not shown
modifications: no C-terminal cholesterol (cholesterol-free)
notes: Expressed in P cells of wing imaginal discs under en-Gal4 in hh ts2/ts2 animals; also called unmodified Hh-Nu; untethered Hh

From patent publication US20030165897A1 (published 2003)
